Publication PMC314469, “Protein Interaction Networks by Proteome Peptide Scanning” (PLoS Biology, 2004)

T1: Rvs167 SH3 (RV167_YEAST), P39743
T1 chain: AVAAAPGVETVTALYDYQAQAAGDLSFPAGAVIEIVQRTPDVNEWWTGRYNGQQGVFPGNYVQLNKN

T2: Boi2 SH3 (BOI2_YEAST), P39969
T2 chain: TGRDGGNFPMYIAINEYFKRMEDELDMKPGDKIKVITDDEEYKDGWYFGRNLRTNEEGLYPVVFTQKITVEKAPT

T3: Myo5 SH3 (MYO5_YEAST), Q04439
T3 chain: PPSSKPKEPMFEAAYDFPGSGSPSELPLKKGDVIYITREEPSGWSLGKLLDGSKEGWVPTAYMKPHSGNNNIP

T4: Boi1 SH3 (BOI1_YEAST), P38041
T4 chain: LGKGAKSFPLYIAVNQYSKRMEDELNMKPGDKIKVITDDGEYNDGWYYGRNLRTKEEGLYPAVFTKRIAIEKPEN

T5: Yhr016c SH3 (YSC84_YEAST), P32793
T5 chain: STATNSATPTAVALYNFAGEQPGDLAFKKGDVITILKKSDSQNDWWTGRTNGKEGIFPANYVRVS

T6: Yfr024 SH3 (LSB3_YEAST), P43603
T6 chain: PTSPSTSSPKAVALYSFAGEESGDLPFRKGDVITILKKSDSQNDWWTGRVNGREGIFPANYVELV


Experiments:
Assay in all cases: SPOT array
[1] = biological target: T1, Rvs167 SH3 (RV167_YEAST), P39743
[2] = biological target: T2, Boi2 SH3 (BOI2_YEAST), P39969
[3] = biological target: T3, Myo5 SH3 (MYO5_YEAST), Q04439
[4] = biological target: T4, Boi1 SH3 (BOI1_YEAST), P38041
[5] = biological target: T5, Yhr016c SH3 (YSC84_YEAST), P32793
[6] = biological target: Sho1 SH3 (SHO1_YEAST), P40073
Sequence of Sho1 SH3 (SHO1_YEAST), P40073 (P40073 295-366): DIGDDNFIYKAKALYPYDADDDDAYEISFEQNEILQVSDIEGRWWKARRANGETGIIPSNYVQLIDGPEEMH

[7] = biological target: T6, Yfr024 SH3 (LSB3_YEAST), P43603

Binder	normalised SPOT signal, Boehringer light units (BLU); mean over the file's lines of this peptide [1]	normalised SPOT signal, Boehringer light units (BLU); mean over the file's lines of this peptide [2]	normalised SPOT signal, Boehringer light units (BLU); mean over the file's lines of this peptide [3]	normalised SPOT signal, Boehringer light units (BLU); mean over the file's lines of this peptide [4]	normalised SPOT signal, Boehringer light units (BLU); mean over the file's lines of this peptide [5]	normalised SPOT signal, Boehringer light units (BLU); mean over the file's lines of this peptide [6]	normalised SPOT signal, Boehringer light units (BLU); mean over the file's lines of this peptide [7]
IKMSRSPPRPPSLK [YDR243C 237-250]	1150	416	17700	1330	1780	223	8250
IKYFKKFPKDPLAM [YPR189W 306-319]	85.2	9.4	237	132	58.6	276	304
ILAVKKNPQSPMYT [YER126C 197-210]	26.4	26.2	175	128	22.6	25.9	69.6
ILEGKFEPVIPREW [YCL047C 191-204]	80	71.3	93.2	53.6	40.5	9.5	82.5
ILERKNIPRQPAIR [YDL034W 13-26]	138	19.9	603	1780	35.3	99.1	354
ILFERILPILPVES [YOL081W 29-42]	457	16.2	340	152	1500	5680	1840
ILKNRMNPEKPYEL [YBL034C 850-863]	240	149	322	327	55.5	100	348
ILPPRIVPAIPKKA [YNL064C 352-365]	17600	29	3670	227	3210	38.5	3560
IMDAKFHPFKPQLF [YMR049C 642-655]	213	42.4	246	121	84.6	94.3	813
INGEKASPFLPSSL [YNL023C 312-325]	50.3	23.2	184	100	33.2	19	12.1
INIAKAHPNFPIAL [YKL182W 717-730]	10.4	20.4	196	53.5	2.8	42.9	0
INNNKMRPHLPPLS [YHR102W 535-548]	1550	646	1000	1310	1230	649	4850
INNTRLSPNSPTPP [YER164W 1330-1343]	31.5	6.8	140	58.4	7.1	42.9	58.4
INTFKTLPTKPEMQ [YDL202W 181-194]	73.4	11.5	167	37.3	14.5	14500	110
INVEREAPMFPVPY [YHR014W 144-157]	36.9	1.3	149	75.5	19.4	49.4	24.3
IPAPKLVPPPPRTR [YNR039C 117-130]	294	26.7	82300	17300	167	99.1	3260
